Experimental data: publication PMC6593972

Molecular target: fluorescein isothiocyanate (FITC)-casein
Experiment: fluorescence polarisation; fluorescence anisotropy; FITC-casein 100 nM, ClpB (WT or mutant) varied; Reaction buffer, 10 min at 30°C, 2 mM ATP; black 384 well plates; Kd by nonlinear regression

Chain of fluorescein isothiocyanate (FITC)-casein (P02662 16-214): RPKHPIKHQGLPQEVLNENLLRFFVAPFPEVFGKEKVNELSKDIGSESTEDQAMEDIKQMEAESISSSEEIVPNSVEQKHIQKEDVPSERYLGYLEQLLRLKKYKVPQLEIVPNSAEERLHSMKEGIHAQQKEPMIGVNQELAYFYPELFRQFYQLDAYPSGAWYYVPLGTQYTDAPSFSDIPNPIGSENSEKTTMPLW
Chain of ClpB wild-type (P63284 whole entry): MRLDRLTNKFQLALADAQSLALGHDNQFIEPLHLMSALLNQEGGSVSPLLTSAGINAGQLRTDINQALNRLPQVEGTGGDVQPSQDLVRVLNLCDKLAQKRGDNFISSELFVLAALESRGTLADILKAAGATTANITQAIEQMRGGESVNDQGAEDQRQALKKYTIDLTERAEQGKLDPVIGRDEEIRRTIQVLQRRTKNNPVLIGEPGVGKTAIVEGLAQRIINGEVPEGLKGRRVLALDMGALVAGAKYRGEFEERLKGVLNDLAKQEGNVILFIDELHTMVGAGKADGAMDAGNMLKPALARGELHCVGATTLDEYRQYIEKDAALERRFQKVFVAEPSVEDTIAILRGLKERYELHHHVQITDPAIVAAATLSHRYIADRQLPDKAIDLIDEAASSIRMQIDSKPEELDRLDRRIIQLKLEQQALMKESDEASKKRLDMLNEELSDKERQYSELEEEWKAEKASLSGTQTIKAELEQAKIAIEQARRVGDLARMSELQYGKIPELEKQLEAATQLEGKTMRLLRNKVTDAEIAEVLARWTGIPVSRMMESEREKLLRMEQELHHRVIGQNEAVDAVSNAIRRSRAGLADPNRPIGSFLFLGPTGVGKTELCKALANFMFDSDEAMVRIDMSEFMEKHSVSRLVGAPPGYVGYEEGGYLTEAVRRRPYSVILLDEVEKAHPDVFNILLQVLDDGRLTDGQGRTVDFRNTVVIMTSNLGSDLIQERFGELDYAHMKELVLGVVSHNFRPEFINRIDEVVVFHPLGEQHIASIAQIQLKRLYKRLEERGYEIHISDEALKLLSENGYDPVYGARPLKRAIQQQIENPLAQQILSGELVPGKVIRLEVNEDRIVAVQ

Substance | Kd [nM]
ClpB wild-type (from UniProt P63284 1-857) (natural protein) | 330
ClpB-K476C (from UniProt P63284 1-857) (natural protein) | 220
